Results from patent US20110105397A1, “METHOD FOR TREATING HEART FAILURE WITH STRESSCOPIN-LIKE PEPTIDES” (priority 2009, published 2011).
Where no end group is shown, it is not given here.

T1: human corticotrophin releasing hormone receptor type 2 (CRHR2) (human, UniProt Q13324 1-411)
T1 sequence (looked up): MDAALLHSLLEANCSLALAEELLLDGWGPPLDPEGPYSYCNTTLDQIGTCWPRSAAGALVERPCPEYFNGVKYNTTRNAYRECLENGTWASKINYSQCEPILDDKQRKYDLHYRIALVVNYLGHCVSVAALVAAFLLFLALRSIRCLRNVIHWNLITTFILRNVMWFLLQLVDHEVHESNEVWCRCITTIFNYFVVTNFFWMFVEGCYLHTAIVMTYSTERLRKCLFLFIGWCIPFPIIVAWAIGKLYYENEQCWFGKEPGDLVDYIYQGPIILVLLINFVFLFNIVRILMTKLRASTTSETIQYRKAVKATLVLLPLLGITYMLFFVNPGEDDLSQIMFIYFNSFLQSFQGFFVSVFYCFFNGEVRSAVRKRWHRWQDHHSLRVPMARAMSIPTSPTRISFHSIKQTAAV


molecular target: T1, human corticotrophin releasing hormone …; assay: cell-based or functional assay

Log DR	pA50	Binder
1.82 log10	7.83 -log10(M)	TKFTLSLDVPTNIMNLLFNIAKAKNLCAQAAANAHLMAQI (NES-PEG (about 20 kDa) on Cys 27; C-terminal amide (-NH2)) [Pegylated Cys-variant stresscopin-like peptide with NES linker and PEG about 20 kDa SEQ ID NO: 81]
> 3.68 log10	~6 -log10(M)	TKFTLSLDVPTNIMNLLFNIAKAKNLRAQAAACAHLMAQI (NES-PEG (about 20 kDa) on Cys 33; C-terminal amide (-NH2)) [Pegylated Cys-variant stresscopin-like peptide with NES linker and PEG about 20 kDa SEQ ID NO: 87]
1.75 log10	7.6 -log10(M)	TKFTLSLDVPTNIMNLLFNIAKAKNCRAQAAANAHLMAQI (NES-PEG (about 20 kDa) on Cys 26; C-terminal amide (-NH2)) [Pegylated Cys-variant stresscopin-like peptide with NES linker and PEG about 20 kDa SEQ ID NO: 80]
0.89 log10	8.51 -log10(M)	TKFTLSLDVPTNIMNLLFNIAKAKNLRAQACANAHLMAQI (NES-PEG (about 20 kDa) on Cys 31; C-terminal amide (-NH2)) [Pegylated Cys-variant stresscopin-like peptide with NES linker and PEG about 20 kDa SEQ ID NO: 85]
~2.17 log10	~7.49 -log10(M)	TKFTLSLDVPTNIMNLLFNIAKAKNLRAQAAANAHCMAQI (NES-PEG (about 20 kDa) on Cys 36; C-terminal amide (-NH2)) [Pegylated Cys-variant stresscopin-like peptide with NES linker and PEG about 20 kDa SEQ ID NO: 90]
> 3.43 log10	~6.23 -log10(M)	TKFTLSLDVPTNIMNLLFNIAKAKNLRAQAAANAHLCAQI (NES-PEG (about 20 kDa) on Cys 37; C-terminal amide (-NH2)) [Pegylated Cys-variant stresscopin-like peptide with NES linker and PEG about 20 kDa SEQ ID NO: 91]
0.98 log10	8.48 -log10(M)	TKFTLSLDVPTNIMNLLFNIAKAKNLRAQAAANACLMAQI (NES-PEG (about 20 kDa) on Cys 35; C-terminal amide (-NH2)) [Pegylated Cys-variant stresscopin-like peptide with NES linker and PEG about 20 kDa SEQ ID NO: 89]
1.12 log10	8.4 -log10(M)	TKFTLSLDVPTNIMNLLFNIAKAKNLRCQAAANAHLMAQI (NES-PEG (about 20 kDa; MW20000) on Cys 28; C-terminal amide (-NH2)) [Pegylated Cys-variant stresscopin-like peptide with NES linker and PEG about 20 kDa SEQ ID NO: 82]
0.82 log10	8.79 -log10(M)	TKFTLSLDVPTNIMNLLFNIAKAKNLRAQAACNAHLMAQI (NES-PEG (about 20 kDa) on Cys 32; C-terminal amide (-NH2)) [Pegylated Cys-variant stresscopin-like peptide with NES linker and PEG about 20 kDa SEQ ID NO: 86]
1.63 log10	7.91 -log10(M)	TKFTLSLDVPTNIMNLLFNIAKAKNLRACAAANAHLMAQI (NES-PEG (about 20 kDa) on Cys 29; C-terminal amide (-NH2)) [Pegylated Cys-variant stresscopin-like peptide with NES linker and PEG about 20 kDa SEQ ID NO: 83]
> 2.39 log10	~7 -log10(M)	TKFTLSLDVPTNIMNLLFNIAKAKNLRAQAAANAHLMAQC (NES-PEG (about 20 kDa) on Cys 40; C-terminal amide (-NH2)) [Pegylated Cys-variant stresscopin-like peptide with NES linker and PEG about 20 kDa SEQ ID NO: 94]
1.47 log10	8.2 -log10(M)	TKFTLSLDVPTNIMNLLFNIAKAKNLRAQAAANAHLMACI (NES-PEG (about 20 kDa) on Cys 39; C-terminal amide (-NH2)) [Pegylated Cys-variant stresscopin-like peptide with NES linker and PEG about 20 kDa SEQ ID NO: 93]
1.55 log10	8.12 -log10(M)	TKFTLSLDVPTNIMNLLFNIAKAKNLRAQAAANCHLMAQI (NES-PEG (about 20 kDa) on Cys 34; C-terminal amide (-NH2)) [Pegylated Cys-variant stresscopin-like peptide with NES linker and PEG about 20 kDa SEQ ID NO: 88]
1.55 log10	8.12 -log10(M)	TKFTLSLDVPTNIMNLLFNIAKAKNLRAQAAANAHLMCQI (NES-PEG (about 20 kDa) on Cys 38; C-terminal amide (-NH2)) [Pegylated Cys-variant stresscopin-like peptide with NES linker and PEG about 20 kDa SEQ ID NO: 92]
~2.84 log10	~6.82 -log10(M)	TKFTLSLDVPTNIMNLLFNIAKAKNLRAQCAANAHLMAQI (NES-PEG (about 20 kDa) on Cys 30; C-terminal amide (-NH2)) [Pegylated Cys-variant stresscopin-like peptide with NES linker and PEG about 20 kDa SEQ ID NO: 84]

The next lines start with the binder.

Binder	Log DR	pA50
TKFTLSLDVPTNIMNLLFNIAKAKNLRAQCAANAHLMAQI-NH2 [Cys-variant stresscopin-like peptide SEQ ID NO: 31]	1.61 log10	8.02 -log10(M)
TKFTLSLDVPTNIMNLLFNIAKACNLRAQAAANAHLMAQI-NH2 [Cys-variant stresscopin-like peptide SEQ ID NO: 25]	0.35 log10	9.17 -log10(M)
TKFTLSLDVPTNIMNLLFNICKAKNLRAQAAANAHLMAQI-NH2 [Cys-variant stresscopin-like peptide SEQ ID NO: 22]	0.52 log10	9.17 -log10(M)
TKFTLSLDVPTNIMNLCFNIAKAKNLRAQAAANAHLMAQI (NES-PEG (about 20 kDa) on Cys 17; C-terminal amide (-NH2)) [Pegylated Cys-variant stresscopin-like peptide with NES linker and PEG about 20 kDa SEQ ID NO: 71]	~2.26 log10	~7.35 -log10(M)
TKFTLSLDVPTNIMNLLFCIAKAKNLRAQAAANAHLMAQI (NES-PEG (about 20 kDa) on Cys 19; C-terminal amide (-NH2)) [Pegylated Cys-variant stresscopin-like peptide with NES linker and PEG about 20 kDa SEQ ID NO: 73]	1.11 log10	8.29 -log10(M)
TKFTLSLDVPTNIMNLLFNICKAKNLRAQAAANAHLMAQI (NES-PEG (about 20 kDa) on Cys 21; C-terminal amide (-NH2)) [Pegylated Cys-variant stresscopin-like peptide with NES linker and PEG about 20 kDa SEQ ID NO: 75]	1.3 log10	8.24 -log10(M)
TKFTLSLDVPTNIMNLLFNCAKAKNLRAQAAANAHLMAQI (NES-PEG (about 20 kDa) on Cys 20; C-terminal amide (-NH2)) [Pegylated Cys-variant stresscopin-like peptide with NES linker and PEG about 20 kDa SEQ ID NO: 74]	~2.28 log10	~7.33 -log10(M)
TKFTLSLDVPTNIMNLLFNIACAKNLRAQAAANAHLMAQI (NES-PEG (about 20 kDa) on Cys 22; C-terminal amide (-NH2)) [Pegylated Cys-variant stresscopin-like peptide with NES linker and PEG about 20 kDa SEQ ID NO: 76]	2.7 log10	6.84 -log10(M)
TKFTLSLDVPTNIMNLLCNIAKAKNLRAQAAANAHLMAQI (NES-PEG (about 20 kDa) on Cys 18; C-terminal amide (-NH2)) [Pegylated Cys-variant stresscopin-like peptide with NES linker and PEG about 20 kDa SEQ ID NO: 72]	1.5 log10	8.04 -log10(M)
TKFTLSLDVPTNIMNLLFNIAKAKCLRAQAAANAHLMAQI (NES-PEG (about 20 kDa) on Cys 25; C-terminal amide (-NH2)) [Pegylated Cys-variant stresscopin-like peptide with NES linker and PEG about 20 kDa SEQ ID NO: 79]	1.11 log10	8.5 -log10(M)
TKFTLSLDVPTNIMNLLFNIAKACNLRAQAAANAHLMAQI (NES-PEG (about 20 kDa) on Cys 24; C-terminal amide (-NH2)) [Pegylated Cys-variant stresscopin-like peptide with NES linker and PEG about 20 kDa SEQ ID NO: 78]	~1.52 log10	~7.89 -log10(M)
TKFTLSLDVPTNIMNLLFNIAKCKNLRAQAAANAHLMAQI (NES-PEG (about 20 kDa) on Cys 23; C-terminal amide (-NH2)) [Pegylated Cys-variant stresscopin-like peptide with NES linker and PEG about 20 kDa SEQ ID NO: 77]	1.27 log10	8.27 -log10(M)
TKFTLSLDVPTNIMNLLFNIAKAKNLRAQAAANAHLMACI-NH2 [Cys-variant stresscopin-like peptide SEQ ID NO: 40]	0.55 log10	9.08 -log10(M)
TKFTLSLDVPTNIMNLLFNIAKAKNLRAQAAANAHLMCQI-NH2 [Cys-variant stresscopin-like peptide SEQ ID NO: 39]	0.41 log10	9.21 -log10(M)
TKFTLSLDVPTNIMNLLFNIAKAKNLRAQACANAHLMAQI-NH2 [Cys-variant stresscopin-like peptide SEQ ID NO: 32]	0.11 log10	9.41 -log10(M)
TKFTLSLDVPTNIMNLLFNIAKAKNLCAQAAANAHLMAQI-NH2 [Cys-variant stresscopin-like peptide SEQ ID NO: 28]	1.61 log10	9.36 -log10(M)

Binder	Log DR	pA50
TKFTLSLDVPTNIMNLLFNIAKAKNLRAQAAANCHLMAQI-NH2 [Cys-variant stresscopin-like peptide SEQ ID NO: 35]	0.7 log10	8.93 -log10(M)
TKFTLSLDVPTNIMNLLFNIAKAKNLRAQAAANAHLCAQI-NH2 [Cys-variant stresscopin-like peptide SEQ ID NO: 38]	> 2.95 log10	~6.67 -log10(M)
TKFTLSLDVPTNIMNLLFNIAKAKCLRAQAAANAHLMAQI-NH2 [Cys-variant stresscopin-like peptide SEQ ID NO: 26]	0.08 log10	9.44 -log10(M)
TKFTLSLDVPTNIMNLLFNIAKAKNCRAQAAANAHLMAQI-NH2 [Cys-variant stresscopin-like peptide SEQ ID NO: 27]	0.76 log10	8.76 -log10(M)
TKFTLSLDVPTNIMNLLFNIAKAKNLRAQAAACAHLMAQI-NH2 [Cys-variant stresscopin-like peptide SEQ ID NO: 34]	> 3.19 log10	~6.32 -log10(M)
TKFTLSLDVPTNIMNLLFNIAKAKNLRAQAAANAHCMAQI-NH2 [Cys-variant stresscopin-like peptide SEQ ID NO: 37]	1.05 log10	8.58 -log10(M)
TKFTLSLDVPTNIMNLLFNIAKCKNLRAQAAANAHLMAQI-NH2 [Cys-variant stresscopin-like peptide SEQ ID NO: 24]	0.74 log10	8.94 -log10(M)
TKFTLSLDVPTNIMNLLCNIAKAKNLRAQAAANAHLMAQI-NH2 [Cys-variant stresscopin-like peptide SEQ ID NO: 19]	1.67 log10	8.01 -log10(M)
TKFTLSLDVPTNIMNLLFCIAKAKNLRAQAAANAHLMAQI-NH2 [Cys-variant stresscopin-like peptide SEQ ID NO: 20]	0.52 log10	9 -log10(M)
TKFTLSLDVPTNIMNLLFNIAKAKNLRCQAAANAHLMAQI-NH2 [Cys-variant stresscopin-like peptide SEQ ID NO: 29]	0 log10	9.47 -log10(M)
TKFTLSLDVPTNIMNLLFNCAKAKNLRAQAAANAHLMAQI-NH2 [Cys-variant stresscopin-like peptide SEQ ID NO: 21]	0.77 log10	8.75 -log10(M)
TKFTLSLDVPTNIMNLLFNIAKAKNLRAQAAANACLMAQI-NH2 [Cys-variant stresscopin-like peptide SEQ ID NO: 36]	0.42 log10	9.1 -log10(M)
TKFTLSLDVPTNIMNLLFNIAKAKNLRAQAAANAHLMAQC-NH2 [Cys-variant stresscopin-like peptide SEQ ID NO: 41]	2.07 log10	7.45 -log10(M)
TKFTLSLDVPTNIMNLLFNIAKAKNLRAQAACNAHLMAQI-NH2 [Cys-variant stresscopin-like peptide SEQ ID NO: 33]	0.45 log10	9.07 -log10(M)
TKFTLSLDVPTNIMNLLFNIACAKNLRAQAAANAHLMAQI-NH2 [Cys-variant stresscopin-like peptide SEQ ID NO: 23]	1.13 log10	8.55 -log10(M)
TKFTLSLDVPTNIMNLLFNIAKAKNLRACAAANAHLMAQI-NH2 [Cys-variant stresscopin-like peptide SEQ ID NO: 30]	1.28 log10	8.4 -log10(M)
